Reference: patent US11260115B1, “Peptides and combination of peptides for use in immunotherapy against CLL and other cancers” (immatics biotechnologies GmbH, priority 2015, dated 2022)

Target: HLA-A*02:01 (Homo sapiens, UniProt P04439, D140Y/D185E/D98H/E176V/E277Q/G131W/G231S/I119V/I121R/I166T/I218V/L300P/L318F/N151K/N90K/P208A/P217A/Q86G/Q94H/R138H/R169H/T345S)
Test: MHC binding assay (UV-ligand exchange, β2m ELISA, peptide exchange yield)
Settings: binding to HLA-A*02:01
How it was run: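 Peptide-HLA-A*02:01 complexes formed by UV-mediated exchange of a photocleavable ligand; exchange yield measured by streptavidin-capture ELISA detecting β2m with HRP anti-β2m, TMB read at 450 nm. Refolded monomer standards 15-500 ng/ml; samples diluted 100-fold.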

Row | Substance | Peptide Exchange (MHC class I binding score, peptide exchange yield)
1 | 182 (VLLSVPGPPV; listed as Homo sapiens) [compound 182] | “+++” (>50 = +++)
2 | 183 (VLMPTVYQQGV; listed as Homo sapiens) [compound 183] | “+++” (>50 = +++)
3 | 184 (VLSHNLYTV; listed as Homo sapiens) [compound 184] | “+++” (>50 = +++)
4 | 185 (VMDDQRDLI; listed as Homo sapiens) [compound 185] | “++” (>20% = ++)
5 | 186 (VMDPTKILI; listed as Homo sapiens) [compound 186] | “++++” (>75% = ++++)
6 | 187 (VMDTHLVNI; listed as Homo sapiens) [compound 187] | “++++” (>75% = ++++)
7 | 188 (VMGDIPAAV; listed as Homo sapiens) [compound 188] | “++” (>20% = ++)
8 | 189 (VMLEMTPEL; listed as Homo sapiens) [compound 189] | “+++” (>50 = +++)
9 | 190 (VVMGTVPRL; listed as Homo sapiens) [compound 190] | “+++” (>50 = +++)
10 | 191 (YIFDGSDGGV; listed as Homo sapiens) [compound 191] | “+++” (>50 = +++)
11 | 193 (YLDLSNNRL; listed as Homo sapiens) [compound 193] | “+++” (>50 = +++)
12 | 194 (YLDNVLAEL; listed as Homo sapiens) [compound 194] | “++++” (>75% = ++++)
13 | 195 (YLGGFALSV; listed as Homo sapiens) [compound 195] | “++++” (>75% = ++++)
14 | 196 (YLLLQTYVL; listed as Homo sapiens) [compound 196] | “+” (>10% = +)
15 | 198 (YLTFLPAEV; listed as Homo sapiens) [compound 198] | “+++” (>50 = +++)
16 | 199 (YLVELSSLL; listed as Homo sapiens) [compound 199] | “++++” (>75% = ++++)
17 | 202 (YVDDVFLRV; listed as Homo sapiens) [compound 202] | “++++” (>75% = ++++)
18 | 203 (ALLSSQLAL; listed as Homo sapiens) [compound 203] | “+++” (>50 = +++)
19 | 204 (GLLQINDKIAL; listed as Homo sapiens) [compound 204] | “+++” (>50 = +++)
20 | 205 (GLSQANFTL; listed as Homo sapiens) [compound 205] | “+++” (>50 = +++)
21 | 206 (HMQDVRVLL; listed as Homo sapiens) [compound 206] | “+++” (>50 = +++)
22 | 207 (IIADLDTTIMFA; listed as Homo sapiens) [compound 207] | “+++” (>50 = +++)
23 | 208 (ILLKTEGINL; listed as Homo sapiens) [compound 208] | “+++” (>50 = +++)
24 | 209 (ILQAELPSL; listed as Homo sapiens) [compound 209] | “+++” (>50 = +++)
25 | 210 (KLLVQDFFL; listed as Homo sapiens) [compound 210] | “+++” (>50 = +++)
26 | 211 (LIDVKPLGV; listed as Homo sapiens) [compound 211] | “+++” (>50 = +++)
27 | 214 (RLQELTEKL; listed as Homo sapiens) [compound 214] | “+++” (>50 = +++)
28 | 215 (VMQDIVYKL; listed as Homo sapiens) [compound 215] | “+++” (>50 = +++)
